Columns and labels:
[1] = target: zebrafish (Danio rerio) carbonic anhydrase VI-pentraxin (CA VI–PTX), recombinant (zebrafish (Danio rerio)); experiment: SEC + other: static and dynamic light scattering (LC-SLS-DLS); 50 ug protein injected on Superdex 200 5/150 in 50 mM NaH3PO4, 500 mM NaCl pH 8, 0.1 ml/min, 20 °C; MW from standard proteins (SEC) and from light-scattering intensity calibrated on monomeric BSA (SLS); Rh from DLS
[2] = target: the molecule itself; experiment: not stated; unpublished data, preliminary result; protein in solution

Molecule | stoichiometry N [1] | stoichiometry N [2]
zebrafish (Danio rerio) carbonic anhydrase VI-pentraxin (CA VI–PTX), recombinant (enzyme) | 5 | 
human carbonic anhydrase VI (CA VI) (enzyme, UniProt P23280-1 18-308, looked up, carbonic anhydrase VI, human; Only an unpublished preliminary result is told (A. Yrjänäinen, 2017); also called human CA VI; gustin) QHVSDWTYSEGALDEAHWPQHYPACGGQRQSPINLQRTKVRYNPSLKGLNMTGYETQAGEFPMVNNGHTVQISLPSTMRMTVADGTVYIAQQMHFHWGGASSEISGSEHTVDGIRHVIEIHIVHYNSKYKSYDIAQDAPDGLAVLAAFVEVKNYPENTYYSNFISHLANIKYPGQRTTLTGLDVQDMLPRNLQHYYTYHGSLTTPPCTENVHWFVLADFVKLSRTQVWKLENSLLDHRNKTIHNDYRRTQPLNHRVVESNFPNQEYTLGSEFQFYLHKIEEILDYLRRALN |  | 2

Reference: publication PMC5723433, “Identification and characterization of a novel zebrafish (Danio rerio) pentraxin–carbonic anhydrase” (PeerJ, 2017)
